Reference: patent US20250332297A1, “DLL3-SPECIFIC BINDING CONSTRUCTS AND THEIR USE IN RADIOTHERAPY” (MOLECULAR PARTNERS AG, priority 2024, published 2025)

Assays:
[1] = target: T1, Dog DLL3-NTD (truncated dog DLL3, N-Terminal Domain, residues 27-189, C-terminal 6xHis and Avi-tag) (dog, UniProt A0A8I3MXZ5 27-188, biotinylated at the Avi-tag); assay: SPR (ProteOn), biotinylated dog DLL3-NTD on chip, DARPin conjugate as analyte, 1:1 Langmuir fit
T1 construct: also called dog NTD; not shown: C-terminal 6xHis and Avi-tag
T1 sequence: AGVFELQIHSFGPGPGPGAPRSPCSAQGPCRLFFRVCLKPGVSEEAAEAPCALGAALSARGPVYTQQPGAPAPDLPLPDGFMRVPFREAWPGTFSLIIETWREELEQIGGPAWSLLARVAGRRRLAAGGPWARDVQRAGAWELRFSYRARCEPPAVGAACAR
Description: (§1) The data were generated using BioRad ProteOn instrument in SPR running buffer (PBS, pH 7.4 containing 0.005% Tween 20©). […] The chip was coated with biotinylated target to reach a signal intensity of 1516 RU (human ECD), 257 RU (human NTD), 1500 RU (cyno ECD) and 228 RU (dog NTD). […] Each injection was followed by a regeneration step with 16 mM H₃PO₄ for 18 s. […] The obtained SPR traces were used to determine on-rate and off-rate interaction parameters.

[2] = target: T2, Cyno DLL3-ECD (extracellular domain of cynomolgus macaque DLL3, residues 27 to 466, Avi-tag, 3C site, Fc knob … (cynomolgus macaque, UniProt A0A2K5WSR1 27-464, biotinylated at the Avi-tag (Example 11))); assay: SPR (ProteOn), biotinylated cyno DLL3-ECD on chip, DARPin conjugate as analyte, 1:1 Langmuir fit
T2 construct: range 27-466; also called cyno ECD; cynomolgus monkey DLL3; not shown: Avi-tag, 3C protease recognition site and Fc knob into hole
T2 sequence: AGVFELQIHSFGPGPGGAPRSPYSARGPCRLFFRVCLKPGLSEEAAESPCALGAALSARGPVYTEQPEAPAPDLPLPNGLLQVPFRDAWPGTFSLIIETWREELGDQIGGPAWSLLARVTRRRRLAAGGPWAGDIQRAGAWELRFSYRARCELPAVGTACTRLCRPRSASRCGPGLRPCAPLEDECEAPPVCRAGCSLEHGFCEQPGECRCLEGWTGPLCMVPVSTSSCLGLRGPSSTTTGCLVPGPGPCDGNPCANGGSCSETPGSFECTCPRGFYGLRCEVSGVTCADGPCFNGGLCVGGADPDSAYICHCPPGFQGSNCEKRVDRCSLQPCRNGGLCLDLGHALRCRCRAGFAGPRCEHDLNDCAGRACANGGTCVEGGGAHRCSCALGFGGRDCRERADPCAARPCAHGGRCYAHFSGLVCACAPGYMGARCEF
Description: as §1

[3] = target: T3, human serum albumin (human, UniProt P02768 25-609); assay: SPR (ProteOn), HSA on chip, DARPin conjugate as analyte, 1:1 Langmuir fit
T3 construct: also called HSA
Description: (§2) SPR multi-trace analyses were performed similarly as described in previous Examples.
(§3) All analytes (3-fold dilution ranging from 600-7.41 nM) were injected in succession for 240 s and dissociation was recorded for 600 s using a constant flow of 25 μl/min (HSA) or 100 μl/min (MSA) (25 μl/min).

[4] = target: T4, Human DLL3-ECD (recombinant extracellular domain of human DLL3, Examples 11, 17 and 19) (human, UniProt Q9NYJ7 27-466, biotinylated at the Avi-tag where immobilised (Examples 11 and 19)); assay: SPR (ProteOn), biotinylated human DLL3-ECD on chip, DARPin conjugate as analyte, 1:1 Langmuir fit (same values as Table 14)
T4 construct: also called hDLL3-ECD; human ECD; not shown: Avi-tag and Fc knob into hole (order depends on the format)
T4 sequence: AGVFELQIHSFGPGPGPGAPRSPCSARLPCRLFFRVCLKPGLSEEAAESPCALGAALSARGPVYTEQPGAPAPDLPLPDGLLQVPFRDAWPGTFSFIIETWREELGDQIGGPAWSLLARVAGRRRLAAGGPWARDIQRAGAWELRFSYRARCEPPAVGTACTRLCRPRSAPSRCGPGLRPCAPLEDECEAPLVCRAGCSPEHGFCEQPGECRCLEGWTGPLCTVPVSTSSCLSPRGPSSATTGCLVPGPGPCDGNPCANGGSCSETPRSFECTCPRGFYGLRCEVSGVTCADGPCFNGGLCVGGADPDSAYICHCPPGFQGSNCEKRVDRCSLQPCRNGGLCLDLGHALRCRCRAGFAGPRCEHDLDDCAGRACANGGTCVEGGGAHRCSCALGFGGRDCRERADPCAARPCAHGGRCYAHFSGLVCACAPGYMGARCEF
Description: as §1

[5] = target: T5, mouse serum albumin (mouse, UniProt P07724 25-608); assay: SPR (ProteOn), MSA on chip, DARPin conjugate as analyte, 1:1 Langmuir fit
T5 construct: also called MSA
Description: as §2, §3

[6] = target: T4, Human DLL3-ECD (recombinant …); assay: SPR (ProteOn), biotinylated human DLL3-ECD on chip, DARPin conjugate as analyte, 1:1 Langmuir fit
Description: as §1

[7] = target: T6, Human DLL3-NTD (truncated human DLL3, N-Terminal Domain, residues 27-189, C-terminal 6xHis and Avi-tag) (human, UniProt Q9NYJ7 27-189); assay: SPR (ProteOn), biotinylated human DLL3-NTD on chip, DARPin conjugate as analyte, 1:1 Langmuir fit
T6 construct: also called hDLL3-NTD; human NTD; not shown: C-terminal 6xHis and Avi-tag
T6 sequence: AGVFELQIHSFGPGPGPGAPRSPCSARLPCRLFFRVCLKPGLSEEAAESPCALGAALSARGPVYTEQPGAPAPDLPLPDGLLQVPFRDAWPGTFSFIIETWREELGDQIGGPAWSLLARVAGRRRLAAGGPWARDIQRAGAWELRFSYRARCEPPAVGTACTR
Description: as §1

T5 sequence (P07724 25-608 limits assumed): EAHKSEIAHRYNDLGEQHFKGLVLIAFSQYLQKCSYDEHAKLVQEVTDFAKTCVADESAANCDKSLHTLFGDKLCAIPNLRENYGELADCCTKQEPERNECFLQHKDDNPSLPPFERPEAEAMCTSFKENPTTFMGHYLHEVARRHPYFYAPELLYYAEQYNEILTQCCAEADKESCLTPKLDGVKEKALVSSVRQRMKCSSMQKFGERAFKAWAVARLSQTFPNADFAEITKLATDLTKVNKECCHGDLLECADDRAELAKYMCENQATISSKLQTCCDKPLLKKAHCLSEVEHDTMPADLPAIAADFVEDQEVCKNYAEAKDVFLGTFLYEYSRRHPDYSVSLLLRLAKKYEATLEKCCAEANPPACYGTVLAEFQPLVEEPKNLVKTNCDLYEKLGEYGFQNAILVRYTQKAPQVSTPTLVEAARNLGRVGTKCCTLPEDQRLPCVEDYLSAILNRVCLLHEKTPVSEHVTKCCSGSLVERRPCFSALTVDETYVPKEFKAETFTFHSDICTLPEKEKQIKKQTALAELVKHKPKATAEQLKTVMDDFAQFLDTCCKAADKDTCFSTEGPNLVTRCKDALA

Kd [1]: 1.46 nM
koff [1]: 4.86e-05 s⁻¹
kon [1]: 33400 M⁻¹ s⁻¹
Kd [2]: 34.6 nM
koff [2]: 0.00125 s⁻¹
kon [2]: 36000 M⁻¹ s⁻¹
Kd [3]: 98.2 nM
koff [3]: 0.021 s⁻¹
kon [3]: 213000 M⁻¹ s⁻¹
Kd [4]: 0.243 nM
koff [4]: 1.64e-05 s⁻¹
kon [4]: 67400 M⁻¹ s⁻¹
Kd [5]: 274 nM
koff [5]: 0.0425 s⁻¹
kon [5]: 155000 M⁻¹ s⁻¹
Kd [6]: 0.243 nM
koff [6]: 1.64e-05 s⁻¹
kon [6]: 67400 M⁻¹ s⁻¹
Kd [7]: 0.394 nM
koff [7]: 1.99e-05 s⁻¹
kon [7]: 50400 M⁻¹ s⁻¹
B1: MAM279-DOTAM (GS-MAM279-tag, SEQ ID NO: 15, conjugated to the chelator DOTAM) (designed binder)
chain: GSDLGKKLLEAARAGQDDEVRELLKAGADVNAKDYFSHTPLHLAARNGHLKIVEVLLKAGADVNAKDFAGKTPLHLAADAGHLEIVEVLLKAGADVNAQDIFGKTPADIAADAGHEDIAEVLQKAAGSPTPTPTTPTPTPTTPTPTPTGSDLGKKLLAAAAQGQDDEVRELLKAGANVNAKDLFGYTPLHLAAWRGHLEIVEVLLKAGADVNAKDAAGETPLHLAAWFGHLEIVEVLLKAGADVNAQDLQGKTPADLAAKEGHEDIAEVLQKAAGSGSC
notes: also called DOTAM-conjugated MAM279; MAM279 conjugate
